Assay [1] has as its target unmasked DoubleCatcher:SpyTag003-MBP. Briefly: covalent coupling (isopeptide bond) followed by SDS-PAGE and densitometry; step 1: DoubleCatcher with two-fold excess SpyTag003-MBP for 2 h, excess removed on bead-immobilized SpyCatcher003; step 2: superTEV protease at 34 °C, then 2 µM of the cleaved construct with 10 µM SUMO-SpyTag003, time course.
The target in assay [2] is DoubleCatcher (N-terminal His6 tag-TEV protease cleavage site-two SpyCatcher003 moieties connected by a (GSG)3 spacer-TEV protease cleavage site-SpyTag003 DA). The assay can be described thus: covalent coupling (isopeptide bond) followed by SDS-PAGE and densitometry; DoubleCatcher 2.5 µM with SpyTag003-mClover3 5 µM, no TEV protease, PBS pH 7.4, 37 °C, time course.
Assay [3] concerns the target Unmasked Catcher (Masked SpyCatcher003 after cleavage by superTEV protease). Briefly: covalent coupling (isopeptide bond) followed by SDS-PAGE and densitometry; Masked SpyCatcher003, before or after cleavage by superTEV protease, with SpyTag003-MBP; both partners at 5 µM, 37 °C, PBS pH 7.4, time course.
Assay [4] has as its target Masked SpyCatcher003 (N-terminal His6 tag-SpyCatcher003-TEV protease cleavage site-SpyTag003 D117A). The description is as above.

In assay [1], “SpyTagged Small Ubiquitin-like Modifier (N-terminal His6 tag-SUMO protein-SpyTag003)” returned a half-time of reaction (t1/2) of 3.6 min and a percent reacted of over 98%.
In assay [2], “SpyTag003 linked to the green fluorescent protein mClover3” had a half-time of reaction (t1/2) of 0.58 min and a percent reacted after 1 h of 91%.
In the case of “SpyTag003 linked to maltose-binding protein (MBP)”, in assay [3], the half-time of reaction (t1/2) is 2.7 min and the percent reacted is over 99%. The percent reacted after 60 min in assay [4] is 3.7%.

The values above are taken from article PMC10944524.
